The assay addresses αVβ3 integrin (UniProt P06756). As to the kind of experiment: binding to αVβ3, against the unsubstituted sequence.

Chain of αVβ3 integrin (P06756 31-1048, chain 1 of 2): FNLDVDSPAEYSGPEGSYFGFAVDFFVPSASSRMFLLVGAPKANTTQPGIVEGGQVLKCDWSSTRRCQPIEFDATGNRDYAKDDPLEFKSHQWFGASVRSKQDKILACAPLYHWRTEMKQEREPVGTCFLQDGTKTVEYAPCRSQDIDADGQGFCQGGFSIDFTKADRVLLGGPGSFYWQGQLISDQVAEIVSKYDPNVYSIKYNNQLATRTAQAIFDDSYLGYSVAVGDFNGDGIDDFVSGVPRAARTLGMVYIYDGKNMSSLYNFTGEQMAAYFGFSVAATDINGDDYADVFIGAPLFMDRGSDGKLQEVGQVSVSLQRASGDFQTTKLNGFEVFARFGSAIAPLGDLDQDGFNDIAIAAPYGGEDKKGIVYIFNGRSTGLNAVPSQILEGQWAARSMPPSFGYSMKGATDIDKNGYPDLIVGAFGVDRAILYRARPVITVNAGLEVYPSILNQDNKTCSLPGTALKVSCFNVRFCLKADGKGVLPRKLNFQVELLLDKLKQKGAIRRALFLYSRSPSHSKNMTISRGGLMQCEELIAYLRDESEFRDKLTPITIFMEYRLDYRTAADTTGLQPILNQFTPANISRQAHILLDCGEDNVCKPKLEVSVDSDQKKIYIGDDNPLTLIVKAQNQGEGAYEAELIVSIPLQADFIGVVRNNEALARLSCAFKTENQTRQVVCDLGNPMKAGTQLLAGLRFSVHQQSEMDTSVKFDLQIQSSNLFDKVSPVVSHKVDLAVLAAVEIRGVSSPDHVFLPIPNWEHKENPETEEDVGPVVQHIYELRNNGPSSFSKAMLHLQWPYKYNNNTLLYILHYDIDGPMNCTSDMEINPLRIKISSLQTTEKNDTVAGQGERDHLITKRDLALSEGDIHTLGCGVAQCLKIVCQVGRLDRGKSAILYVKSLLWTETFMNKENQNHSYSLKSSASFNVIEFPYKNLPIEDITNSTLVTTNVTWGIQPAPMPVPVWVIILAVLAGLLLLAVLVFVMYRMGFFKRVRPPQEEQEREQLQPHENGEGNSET
Chain of αVβ3 integrin (P05106 27-788, chain 2 of 2, further chain): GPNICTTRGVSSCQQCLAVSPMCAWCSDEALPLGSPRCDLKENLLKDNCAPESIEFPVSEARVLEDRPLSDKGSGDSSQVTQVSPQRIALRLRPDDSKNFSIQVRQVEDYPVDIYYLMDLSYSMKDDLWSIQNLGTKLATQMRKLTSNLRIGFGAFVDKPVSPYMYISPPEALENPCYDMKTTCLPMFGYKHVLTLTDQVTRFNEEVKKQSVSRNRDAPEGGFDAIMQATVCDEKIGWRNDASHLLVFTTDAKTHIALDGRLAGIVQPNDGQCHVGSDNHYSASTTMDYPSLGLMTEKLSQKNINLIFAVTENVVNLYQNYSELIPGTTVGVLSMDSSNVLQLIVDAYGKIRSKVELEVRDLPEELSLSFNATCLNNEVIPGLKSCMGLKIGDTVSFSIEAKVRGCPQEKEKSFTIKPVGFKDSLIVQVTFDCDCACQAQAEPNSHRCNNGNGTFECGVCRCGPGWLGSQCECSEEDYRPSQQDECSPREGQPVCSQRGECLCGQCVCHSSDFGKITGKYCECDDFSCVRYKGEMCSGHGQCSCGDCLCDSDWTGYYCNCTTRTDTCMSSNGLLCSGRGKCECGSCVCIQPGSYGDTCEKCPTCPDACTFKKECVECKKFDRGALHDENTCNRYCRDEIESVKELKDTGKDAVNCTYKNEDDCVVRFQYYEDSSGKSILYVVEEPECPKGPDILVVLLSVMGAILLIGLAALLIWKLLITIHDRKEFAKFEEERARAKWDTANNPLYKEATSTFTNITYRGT

In turn, “vitronectin sequence with the single arginine at position 374 changed to alanine (peptide)” returned a decrease in binding of 70%.

The record behind these values is US20050288217A1.
